Here are results for nine molecules from patent US20180057604A1 (Genentech, published 2018).

Test [1] concerns the target T1, cyno TfR extracellular domain (analogous construct to human TfR ecd) (cynomolgus monkey, UniProt Q5RDH6 87-760 (Pongo abelii entry)).
T1 construct: also called cynoTfR ecd
T1 chain: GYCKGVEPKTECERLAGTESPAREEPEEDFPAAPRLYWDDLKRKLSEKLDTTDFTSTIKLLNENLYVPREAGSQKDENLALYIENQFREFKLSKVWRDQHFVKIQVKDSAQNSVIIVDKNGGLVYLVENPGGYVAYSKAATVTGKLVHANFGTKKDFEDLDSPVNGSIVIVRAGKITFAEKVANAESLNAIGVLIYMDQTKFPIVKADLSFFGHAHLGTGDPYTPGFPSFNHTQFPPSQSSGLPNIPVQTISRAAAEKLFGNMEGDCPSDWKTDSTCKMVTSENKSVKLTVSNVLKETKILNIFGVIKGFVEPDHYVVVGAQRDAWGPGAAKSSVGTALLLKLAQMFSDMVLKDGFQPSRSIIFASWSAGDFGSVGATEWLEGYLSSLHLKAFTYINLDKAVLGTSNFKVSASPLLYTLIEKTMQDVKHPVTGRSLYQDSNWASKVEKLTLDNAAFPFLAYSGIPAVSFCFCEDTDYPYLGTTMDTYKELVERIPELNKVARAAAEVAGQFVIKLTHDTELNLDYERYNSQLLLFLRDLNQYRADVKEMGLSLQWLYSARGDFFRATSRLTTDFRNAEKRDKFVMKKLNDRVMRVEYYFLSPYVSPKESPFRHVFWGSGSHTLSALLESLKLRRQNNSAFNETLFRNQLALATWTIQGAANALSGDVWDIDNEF
As to the kind of experiment: SPR, TfR captured by anti-His, Fab injected.

The target of test [2] is T2, human TfR extracellular domain with N-terminal His tag (human, UniProt P02786 89-760).
T2 construct: Biotinylated in some assays; also called huTfR; HuTfR
As to the kind of experiment: SPR, TfR captured by anti-His, Fab injected.

In test [3] the target is T1, cyno TfR extracellular domain …. As to the kind of experiment: SPR, KD on cyno TfR over KD on human TfR. Background: In SPR one partner is held on a chip, and binding of the other changes the refractive index at the surface.
The target in test [4] is T2, human TfR extracellular domain with …. Briefly: SPR, Fab.
Test [5] has as its target T1, cyno TfR extracellular domain …. Briefly: SPR, TfR captured by anti-His, Fab injected.
The target in test [6] is T2, human TfR extracellular domain with …. Briefly: SPR, TfR captured by anti-His, Fab injected. The source holds these as a separate data set.
For test [7], the target named is T1, cyno TfR extracellular domain …. As to the kind of experiment: SPR, KD on cyno TfR over KD on human TfR.
For test [8], the target named is T3, human BACE1 ECD.
T3 construct: analyte of the Octet assay (200 nM) and enzyme of the first short substrate assay; also called human BACE1 extracellular domain
Briefly: Octet, pH 7.5, second run. For orientation: Biolayer interferometry detects binding as a change in optical thickness at a sensor tip.

Test [9] addresses T4, murine BACE1 ECD.
T4 construct: analyte of the Octet assay (200 nM) and enzyme of the first short substrate assay
As to the kind of experiment: Octet, pH 7.5, second run.

The target of test [10] is T3, human BACE1 ECD. Briefly: cell-based or functional assay.
The target in test [11] is T4, murine BACE1 ECD. Briefly: cell-based or functional assay.
Test [12] addresses BACE1 (HTRF long substrate and FRET short substrate assays of Example 9D). Briefly: cell-based or functional assay.
For test [13], the target named is T5, human BACE1 (R&D Systems) (human, UniProt P56817).
T5 construct: recombinant, commercial (R&D Systems)
As to the kind of experiment: SPR (Biacore).

For test [14], the target named is T3, human BACE1 ECD. Briefly: Octet, pH 7.5.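 Note: antibodies captured on anti-human capture biosensor tips, dissociation followed in PBS with BSA buffer, kinetics fitted with a one-to-one binding model.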
Test [15] addresses T4, murine BACE1 ECD. Briefly: Octet, pH 7.5.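 Note: antibodies captured on anti-human capture biosensor tips, dissociation followed in PBS with BSA buffer, kinetics fitted with a one-to-one binding model.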
Test [16] concerns the target T3, human BACE1 ECD. Briefly: Octet, pH 5.0.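 Note: antibodies captured on anti-human capture sensor tips, dissociation monitored in PBS with BSA buffer, kinetics fitted with a one-to-one binding model.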
For test [17], the target named is T4, murine BACE1 ECD. As to the kind of experiment: Octet, pH 5.0.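 Note: antibodies captured on anti-human capture sensor tips, dissociation monitored in PBS with BSA buffer, kinetics fitted with a one-to-one binding model.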
Test [18] addresses T6, BACE1 in primary mouse cortical neurons (mouse, UniProt P56818 46-501). Briefly: cell-based or functional assay.
For test [19], the target named is T3, human BACE1 ECD. Briefly: Octet, pH 5.0, second run.
Test [20] concerns the target T4, murine BACE1 ECD. As to the kind of experiment: Octet, pH 5.0, second run.
Test [21] has as its target T6, BACE1 in primary mouse cortical neurons. Briefly: cell-based or functional assay. The source holds these as a separate data set.

Read-outs that look alike come from different tables or passages of the source.

T4 sequence (single chain, as listed by the source limits assumed): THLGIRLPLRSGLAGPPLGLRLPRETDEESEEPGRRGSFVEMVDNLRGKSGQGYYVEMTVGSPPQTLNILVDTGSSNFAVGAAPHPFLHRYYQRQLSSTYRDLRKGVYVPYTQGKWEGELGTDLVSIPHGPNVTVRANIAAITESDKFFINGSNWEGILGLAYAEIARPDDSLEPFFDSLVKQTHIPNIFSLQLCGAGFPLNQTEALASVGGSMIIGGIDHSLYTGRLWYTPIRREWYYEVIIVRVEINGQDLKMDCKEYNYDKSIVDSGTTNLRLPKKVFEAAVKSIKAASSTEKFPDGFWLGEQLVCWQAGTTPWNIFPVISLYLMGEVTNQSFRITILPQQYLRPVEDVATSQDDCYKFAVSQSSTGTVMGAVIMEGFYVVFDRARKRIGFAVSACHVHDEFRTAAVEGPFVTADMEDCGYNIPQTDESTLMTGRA
T2 sequence (P02786 89-760 G142S): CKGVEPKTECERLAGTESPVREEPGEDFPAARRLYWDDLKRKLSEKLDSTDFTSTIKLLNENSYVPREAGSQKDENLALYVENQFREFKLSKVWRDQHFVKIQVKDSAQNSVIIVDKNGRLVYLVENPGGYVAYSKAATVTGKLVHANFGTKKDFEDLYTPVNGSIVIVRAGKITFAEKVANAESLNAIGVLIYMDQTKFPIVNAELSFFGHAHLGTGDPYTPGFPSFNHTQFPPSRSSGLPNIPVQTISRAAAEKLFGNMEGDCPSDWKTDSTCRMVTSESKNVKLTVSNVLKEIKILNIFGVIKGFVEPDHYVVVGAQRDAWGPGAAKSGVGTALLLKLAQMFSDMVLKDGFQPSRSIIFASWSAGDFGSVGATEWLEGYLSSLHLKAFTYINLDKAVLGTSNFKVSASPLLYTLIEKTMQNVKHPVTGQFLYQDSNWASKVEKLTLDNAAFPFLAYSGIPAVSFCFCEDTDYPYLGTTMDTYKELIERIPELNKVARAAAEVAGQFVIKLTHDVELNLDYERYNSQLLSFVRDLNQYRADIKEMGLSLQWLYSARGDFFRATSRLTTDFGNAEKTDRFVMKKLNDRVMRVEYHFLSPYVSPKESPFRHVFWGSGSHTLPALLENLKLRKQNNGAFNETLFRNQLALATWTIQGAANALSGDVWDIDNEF
T6 sequence (P56818 46-501): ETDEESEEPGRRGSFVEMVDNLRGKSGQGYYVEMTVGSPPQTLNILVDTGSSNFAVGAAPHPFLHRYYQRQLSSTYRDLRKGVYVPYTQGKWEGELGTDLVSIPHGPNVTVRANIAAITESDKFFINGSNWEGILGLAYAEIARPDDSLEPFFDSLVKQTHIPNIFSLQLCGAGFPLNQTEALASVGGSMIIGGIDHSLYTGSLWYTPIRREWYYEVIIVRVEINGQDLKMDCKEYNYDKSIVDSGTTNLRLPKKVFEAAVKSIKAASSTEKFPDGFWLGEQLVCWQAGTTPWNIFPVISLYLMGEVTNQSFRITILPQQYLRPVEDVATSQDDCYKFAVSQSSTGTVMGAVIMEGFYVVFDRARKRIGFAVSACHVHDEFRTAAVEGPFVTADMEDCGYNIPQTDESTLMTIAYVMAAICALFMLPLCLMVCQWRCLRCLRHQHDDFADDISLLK
T3 sequence (single chain, as listed by the source limits assumed): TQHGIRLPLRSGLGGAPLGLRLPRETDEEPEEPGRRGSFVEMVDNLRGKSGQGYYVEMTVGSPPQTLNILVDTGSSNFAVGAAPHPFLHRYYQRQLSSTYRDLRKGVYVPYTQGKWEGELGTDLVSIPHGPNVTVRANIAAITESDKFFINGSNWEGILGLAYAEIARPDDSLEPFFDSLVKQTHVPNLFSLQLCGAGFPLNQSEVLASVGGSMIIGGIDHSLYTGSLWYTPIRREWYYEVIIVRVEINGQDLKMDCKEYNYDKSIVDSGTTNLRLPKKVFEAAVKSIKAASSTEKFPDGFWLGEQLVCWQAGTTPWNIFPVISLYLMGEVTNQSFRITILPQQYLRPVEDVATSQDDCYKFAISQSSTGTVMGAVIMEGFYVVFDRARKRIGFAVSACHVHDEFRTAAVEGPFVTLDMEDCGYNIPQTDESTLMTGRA
T5 sequence (P56817 22-457 limits assumed): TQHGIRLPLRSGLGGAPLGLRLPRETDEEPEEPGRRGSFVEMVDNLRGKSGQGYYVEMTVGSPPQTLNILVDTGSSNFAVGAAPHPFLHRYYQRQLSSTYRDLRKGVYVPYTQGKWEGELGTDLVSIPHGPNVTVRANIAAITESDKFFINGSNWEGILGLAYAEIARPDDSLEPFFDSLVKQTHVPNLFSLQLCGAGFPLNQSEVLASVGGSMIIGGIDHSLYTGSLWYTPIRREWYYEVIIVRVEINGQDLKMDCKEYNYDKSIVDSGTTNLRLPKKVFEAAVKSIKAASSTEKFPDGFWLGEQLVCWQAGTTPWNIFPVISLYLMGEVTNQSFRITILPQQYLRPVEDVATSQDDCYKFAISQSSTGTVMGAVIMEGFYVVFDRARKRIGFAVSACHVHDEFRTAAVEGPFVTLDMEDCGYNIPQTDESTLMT

B1: Mu16F6.Fab (Fab, V domains shown)
VH: DVQLQESGPGLVKPSQSLSLTCTVTGNSITSEYAWNWIRQFPGNKLEWMGYISYSGTTSYNPSLKSRISITRDTSKNQLFLQLNSVTTEDTATYFCARYGYGNPATRYFDVWGAGTTVTVSS
VL: DVQITQSPSYLTASPGETITINCRASKSISKYLAWYQEKPGKTNKLLIYSGSTLQSGIPSRFSGSGSGTDFTLTISNLEPEDFAMYYCQQHNEYPWTFGGGTKLEIK
notes: Fab; also called mouse 16F6 Fab
The koff is a measure of how fast the partners let go of each other. Read a high koff as fast dissociation. A word on the kon: it is the second-order rate constant of association. Lower therefore signals slower complex formation. On to B1, for which the results for the koff in test [1] and in test [2] were 0.00137 s⁻¹ and 0.00019 s⁻¹, respectively. Moreover, the values for the on-rate (kon) in test [1] and in test [2] were 51100 M⁻¹ s⁻¹ and 60700 M⁻¹ s⁻¹, respectively. Moreover, the Cy/hu ratio in test [3] amounted to 8.56.

B2: Mu7A4.Fab (Fab, V domains shown)
VH: QVQLQQSGPELVRPGVSVKISCKGSGYTFTDYAMHWVKQSHAKSLEWIGGISTYFGRTNYNQKFKGRATMTVDKSSSTAYMELARLTSEDSALYYCARGLSGNYVMDYWGQGTSVTVSS
VL: DIVLTQSPASLAVSLGQRATISCRASESVDDYGNSFMHWYQQKPGQPPKLLIYRASNLESGIPARFSGSGSRTDFTLTINPVEADDVATYYCQQSNEAPPTFGGGTKLEIR
notes: Fab; also called mouse 7A4 Fab
One may read the Kd as the constant that tells how readily two partners part at equilibrium. Take B2: in test [1], the Kd stood at 741 pM, the dissociation rate constant (koff) was 0.000845 s⁻¹ and the kon stood at 1.14e+06 M⁻¹ s⁻¹. In test [2], this molecule yielded a Kd of 190 pM, a dissociation rate constant (koff) of 0.000313 s⁻¹ and an association rate constant (kon) of 1.65e+06 M⁻¹ s⁻¹. The Cy/hu ratio in test [3] is 3.9.

B3: F91A (Fab, V domains shown)
VH: EVQLVQSGAEVKKPGASVKVSCKASGYTFTSYWMHWVRQAPGQRLEWIGEINPTNGRTNYIEKFKSRATLTVDKSASTAYMELSSLRSEDTAVYYCARGTRAYHYWGQGTMVTVSS
VL: DIQMTQSPSSLSASVGDRVTITCRASDNLYSNLAWYQQKPGKSPKLLVYDATNLADGVPSRFSGSGSGTDYTLTISSLQPEDFATYYCQHAWGTPLTFGQGTKVEIK
notes: also called 15G11.v5 F91A (CDR-L3) Fab
For B3, the dissociation constant Kd in [4] came out at 383000 pM.

B4: Hu15G11.HC34A Fab (Fab, V domains shown)
VH: EVQLVQSGAEVKKPGASVKVSCKASGYTFTSYWAHWVRQAPGQRLEWIGEINPTNGRTNYIEKFKSRATLTVDKSASTAYMELSSLRSEDTAVYYCARGTRAYHYWGQGTMVTVSS
VL: DIQMTQSPSSLSASVGDRVTITCRASDNLYSNLAWYQQKPGKSPKLLVYDATNLADGVPSRFSGSGSGTDYTLTISSLQPEDFATYYCQHFWGTPLTFGQGTKVEIK
notes: Fab
On to B4, for which, in test [5], the koff was found to be 0.0099 s⁻¹ and the kon stood at 304000 M⁻¹ s⁻¹. In [6], this molecule yielded a koff of 0.00403 s⁻¹ and an association rate constant (kon) of 564000 M⁻¹ s⁻¹. For the same molecule, in [7], the Cy/hu ratio amounted to 4.6.

B5: W92A (Fab, V domains shown)
VH: EVQLVQSGAEVKKPGASVKVSCKASGYTFTSYWMHWVRQAPGQRLEWIGEINPTNGRTNYIEKFKSRATLTVDKSASTAYMELSSLRSEDTAVYYCARGTRAYHYWGQGTMVTVSS
VL: DIQMTQSPSSLSASVGDRVTITCRASDNLYSNLAWYQQKPGKSPKLLVYDATNLADGVPSRFSGSGSGTDYTLTISSLQPEDFATYYCQHFAGTPLTFGQGTKVEIK
notes: also called 15G11.v5 W92A (CDR-L3) Fab
In test [4], B5 yielded a dissociation constant Kd of 280000 pM.

B6: Hu15G11.HC51A Fab (Fab, V domains shown)
VH: EVQLVQSGAEVKKPGASVKVSCKASGYTFTSYWMHWVRQAPGQRLEWIGEANPTNGRTNYIEKFKSRATLTVDKSASTAYMELSSLRSEDTAVYYCARGTRAYHYWGQGTMVTVSS
VL: DIQMTQSPSSLSASVGDRVTITCRASDNLYSNLAWYQQKPGKSPKLLVYDATNLADGVPSRFSGSGSGTDYTLTISSLQPEDFATYYCQHFWGTPLTFGQGTKVEIK
notes: Fab
As to B6, in test [5], the off-rate (koff) came out at 0.0329 s⁻¹ and the kon was 313000 M⁻¹ s⁻¹. In test [6], the off-rate constant (koff) is 0.0104 s⁻¹ and the on-rate (kon) came out at 433000 M⁻¹ s⁻¹. In addition, in test [7], the Cy/hu ratio was determined as 4.4.

B7: Hu16F6.v4.Fab (Fab, V domains shown)
VH: EVQLVESGPGLVKPSETLSLTCTVSGNSITSEYAWNWIRQPPGKGLEWIGYISYSGTTSYNPSLKSRVTISRDTSKNQLSLKLSSVTAADTAVYYCARYGYGNPATRYFDVWGQGTLVTVSS
VL: DIQMTQSPSSLSASVGDRVTITCRASKSISKYLAWYQQKPGKTNKLLLYSGSTLQSGVPSRFSGSGSGTDYTLTISSLQPEDFATYYCQQHNEYPWTFGQGTKVEIK
notes: Fab
In the case of B7, in test [1], the koff is 0.00244 s⁻¹ and the kon was 98900 M⁻¹ s⁻¹. In test [2], this molecule yielded a dissociation rate constant (koff) of 0.000169 s⁻¹ and a kon of 131000 M⁻¹ s⁻¹. In addition, the Cy/hu ratio in test [3] came out at 19.1.

B8: 5894 (antibody, V domains shown)
VH: QVQLVQSGAEVKKPGSSVKVSCKASGGTFSGYAISWVRQAPGQGLEWMGNIIPGFGTANYAQKFQGRVTITADESTSTAYMELSSLRSEDTAVYYCARSGGTKYGMLDVWGQGTMVTVSS
VL: EIVMTQSPATLSVSPGERATLSCRASQSVGSNLAWYQQKPGQAPRLLIYGASTRATGIPARFSGSGSGTEFTLTISSLQSEDFAVYYCQQLYTWPPRTFGGGTKVEIK
notes: anti-BACE1 IgG
On to B8, for which the Kd is under 380 pM in the test with human BACE1 ECD [8]; under 400 pM with murine BACE1 ECD [9]; 2950 pM in test [13]; 270 pM in the test with human BACE1 ECD [14]; 860 pM with murine BACE1 ECD [15]; 300 pM in the test with human BACE1 ECD [16]. The equilibrium dissociation constant (Kd) in the test with murine BACE1 ECD [17] is 650 pM; with human BACE1 ECD [19] it was under 270 pM; with murine BACE1 ECD [20] it was under 380 pM. Further, the “% inhibition of BACE1 activity, short FRET substrate” value with human BACE1 ECD [10] and with murine BACE1 ECD [11] was 69% each time. Further, in test [12], the “EC50, FRET short substrate” value was 8580 pM. Further, in [12], the “EC50, HTRF long substrate” value was found to be 1790 pM. The “IC50, Abeta x-40 in mouse cortical neurons” value in [18] worked out at 6480 pM. In [18], the “IC50, Abeta x-40 in mouse cortical neurons (5894*, second run)” value worked out at 5430 pM. The “maximal % inhibition of Abeta x-40” value in test [18] worked out at 78%.

B9: 5905 (antibody, V domains shown)
VH: QLQLQESGPGLVKPSETLSLTCTVSGGSISWSSYYWSWIRQPPGKGLEWIGSIYRSGRTYYNPSLKSRVTISVDTSKNQFSLKLSSVTAADTAVYYCARVGHGISYFDLWGRGTLVTVSS
VL: EIVLTQSPATLSLSPGERATLSCRASQSVSSYLAWYQQKPGQAPRLLIYDASKRATGIPARFSGSGSGTDFTLTISSLEPEDFAVYYCQQVYTWPPRTFGGGTKVEIK
notes: anti-BACE1 IgG
Consider B9, for which the “IC50, Abeta x-40 in mouse cortical neurons” value in test [21] stood at 330 pM. Also, the “IC50, Abeta x-40 in mouse cortical neurons (5905*, second run)” value in test [21] is 830 pM. Also, the “maximal % inhibition of Abeta x-40” value in [21] came to 65%. In addition, the dissociation constant (Kd) in the test with human BACE1 ECD [8] was found to be 510 pM; in the test with murine BACE1 ECD [9], 400 pM; in [13], 3530 pM; in the test with human BACE1 ECD [14] it was 1300 pM; with murine BACE1 ECD [15], 1400 pM; in the test with human BACE1 ECD [16], 1100 pM. In addition, the dissociation constant (Kd) was found to be 1100 pM with murine BACE1 ECD [17], 270 pM with human BACE1 ECD [19] and 380 pM with murine BACE1 ECD [20]. In addition, the “% inhibition of BACE1 activity, short FRET substrate” value came out at 65% in the test with human BACE1 ECD [10] and 72% with murine BACE1 ECD [11]. Besides, the “EC50, FRET short substrate” value in test [12] was determined as 1330 pM. Further, in test [12], the “EC50, HTRF long substrate” value came to 3910 pM.
